Four molecules from article PMC3777401 can be followed below.

The target in data set [1] is T1, FLAG-CTCF-6xHis (UniProt Q61164 1-736).
T1 sequence: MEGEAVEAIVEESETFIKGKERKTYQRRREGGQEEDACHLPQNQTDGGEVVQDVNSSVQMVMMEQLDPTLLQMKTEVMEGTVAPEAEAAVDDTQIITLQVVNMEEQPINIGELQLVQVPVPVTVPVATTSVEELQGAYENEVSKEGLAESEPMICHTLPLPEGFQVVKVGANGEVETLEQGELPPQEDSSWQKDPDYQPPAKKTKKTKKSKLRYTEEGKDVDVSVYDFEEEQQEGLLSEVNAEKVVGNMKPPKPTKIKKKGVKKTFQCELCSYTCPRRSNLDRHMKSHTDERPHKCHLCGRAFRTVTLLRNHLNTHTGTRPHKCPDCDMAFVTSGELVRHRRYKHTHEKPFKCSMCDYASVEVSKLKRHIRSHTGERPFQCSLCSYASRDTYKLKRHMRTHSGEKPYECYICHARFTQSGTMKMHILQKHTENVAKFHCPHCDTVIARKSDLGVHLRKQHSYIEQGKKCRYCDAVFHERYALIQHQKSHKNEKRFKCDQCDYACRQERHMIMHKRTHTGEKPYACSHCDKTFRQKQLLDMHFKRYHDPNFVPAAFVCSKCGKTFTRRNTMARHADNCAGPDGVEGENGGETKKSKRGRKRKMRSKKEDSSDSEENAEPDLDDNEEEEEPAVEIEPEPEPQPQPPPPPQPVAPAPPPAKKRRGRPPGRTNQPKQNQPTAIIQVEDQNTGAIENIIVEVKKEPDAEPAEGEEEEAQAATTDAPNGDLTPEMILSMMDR
Description: EMSA. (Mobility shift assays separate free from complexed probe on a gel.)

In data set [2] the target is T1, FLAG-CTCF-6xHis. Description: competition.

B1: Xist_5' (dsDNA)
DNA 1: TTTGGCTTCAGATGCCTTGGAAAGATTCATGCTGCCACCTGCTGGTTTATTCAGTCTGTGTGCATCATTTATTTACTTGT
DNA 2: ACAAGTAAATAAATGATGCACACAGACTGAATAAACCAGCAGGTGGCAGCATGAATCTTTCCAAGGCATCTGAAGCCAAA
In the case of B1, in the data set with FLAG-CTCF-6xHis [1], the binding result is on record as “binds”.

B2: RS14C (dsDNA)
DNA 1: CTATGCATTAGGTTTGGGTGTTATACCCGTGTAGGCCAGCAGAGGGTGTCGGATCCCAAGGAAACCAAGTTACAGACGCC
DNA 2: GGCGTCTGTAACTTGGTTTCCTTGGGATCCGACACCCTCTGCTGGCCTACACGGGTATAACACCCAAACCTAATGCATAG
For the molecule B2, the binding result with FLAG-CTCF-6xHis [1] is “binds”.

B3: P2 (dsDNA)
DNA 1: GAATGTGTCTAAGATGGCGGAAGTCATGTGACCTGCCCTCTAGTGGTTTCTTTCAGTGATTTTTTTTTTGGCGGGCTTTA
DNA 2: TAAAGCCCGCCAAAAAAAAAATCACTGAAAGAAACCACTAGAGGGCAGGTCACATGACTTCCGCCATCTTAGACACATTC
Turning to B3, the binding result with FLAG-CTCF-6xHis [2] is recorded as “binds”.

B4: P1 (dsDNA)
DNA 1: TTGTGGCCACTCCTCTTCTGGTCTCTCCGCCTTCAGCGCCGCGGATCAGTTAAAGGCGTGCAACGGCTTGCTCCAGCCAT
DNA 2: ATGGCTGGAGCAAGCCGTTGCACGCCTTTAACTGATCCGCGGCGCTGAAGGCGGAGAGACCAGAAGAGGAGTGGCCACAA
As for B4, the binding result with FLAG-CTCF-6xHis [1] is reported as “no binding”.
